Experimental data published in PMC4814874.

Assays:
[1] = molecular target: MART1 peptide on HLA-A*02:01 (human); experiment: IL-2 ELISPOT; Jurkat 76 without CD8; T2 + graded peptide; full-length, on cells
[2] = molecular target: MART1 peptide on HLA-A*02:01 (human); experiment: IL-2 ELISPOT; Jurkat 76/CD8; T2 + graded peptide; full-length, on cells
[3] = molecular target: MART1 peptide on HLA-A*02:01 (human); experiment: structural avidity; Jurkat 76/CD8; graded A2/MART1 multimer; full-length, on cells
[4] = molecular target: MART1 peptide on HLA-A*02:01 (human); experiment: structural avidity; Jurkat 76 without CD8; graded A2/MART1 multimer; full-length, on cells

DMF5 showed an EC50 of peptide [1] of 0.363 µg/mL, an EC50 of peptide [2] of 0.102 µg/mL and an EC50 of multimer [3] of 0.013 µg/mL. The EC50 of multimer [4] was 0.022 µg/mL.
